In patent US12578329B2, “Reagent kit containing polypeptide for use in detection of intermolecular interactions” (SHIMADZU CORPORATION, priority 2021, dated 2026):
“Also recorded” adds a separate entry of the source.

Columns and labels:
[1] = Emission value of secretion-expressed luciferase in COS-7 culture medium, coelenterazine h substrate; type: biochemical; conditions: Experiment 5
Experimental: (§1) • (1) COS-7 cells derived from the kidney of African green monkey were inoculated in a 24-well dish, and on the next day, subconfluency was attained. • (2) 25 μL of Opti-MEM (Thermo Fisher Scientific™), 400 ng (2 μL) of the plasmid, and 1 μL of P3000 (Invitrogen™, Waltham, MA) were mixed. • (3) 25 μL of Opti-MEM and 1 μL of lipofectoamine 3000 (Invitrogen™) were mixed. • (4) (2) and (3) were mixed together, followed by incubation at room temperature for 5 minutes. • (5) The mixture was added to the medium of (1). • (6) 500 μL of Dulbecco's modified Eagle's medium was added, followed by culturing the cells at 37° C. for 1 day and then collecting the medium. The medium contained secretion-expressed luciferase. • (7) To 100 μL of the medium, coelenterazine was added as a substrate at a final concentration of 5 μM, followed by measuring the emission value by using Enspire multi-mode plate reader (PerkinElmer™, Waltham, MA).
The emission value was measured in the same manner as in Experiment 2 except that coelenterazine h was used as a substrate in a final concentration of 5 μM. […] The emission value was measured in the same manner as in Experiment 2 except that coelenterazine h was used as a substrate in a final concentration of 25 μM.

[2] = Emission value of secretion-expressed luciferase in COS-7 culture medium, coelenterazine substrate; type: biochemical; conditions: Experiment 5
Experimental: as §1
By the same manner as in Experiment 2, the emission value was measured.
The emission value was measured in the same manner as in Experiment 2 except that the final concentration of coelenterazine was changed to 0.5 μM. […] The emission value was measured in the same manner as in Experiment 2 except that the final concentration of coelenterazine was changed to 5 μM.

[3] = GLuc: when secretion expressed from cells; cited from earlier work
[4] = Emission value of secretion-expressed luciferase in COS-7 culture medium, furimazine substrate; type: biochemical; conditions: Experiment 5; furimazine in the concentration recommended by the manufacturer
Experimental: as §1
The emission value was measured in the same manner as in Experiment 2 except that furimazine, which was available from Promega™ as a NanoLuc® substrate, was used as a substrate in the concentration recommended by the manufacturer.

[5] = Emission activity of divided enzyme (Escherichia coli lysates, single or mixed); type: biochemical; conditions: Experiment 11-2, coelenterazine 5 μM, Enspire multi-mode plate reader
Description: picALuc30 was divided to prepare plasmids (pET32 vectors) for expression of polypeptides from position 4 to 22, from position 23 to 120, from position 4 to 47, from position 48 to 120, from position 4 to 77, from position 80 to 120, from position 4 to 90, and from position 91 to 120 of the amino acid sequence in SEQ ID NO: 51. In the same manner as in Experiment 10, the plasmid was introduced into Escherichia coli SHuffle T7 Express lysY, and from the cultured bacterial cells, a lysate was obtained. To 100 μL of a single lysate or a mixture of lysates as specified in FIG. 25, coelenterazine was added as a substrate at a final concentration of 5 μM, followed by measuring the emission value by using an Infinite (registered trademark) 200 PRO plate reader (TECAN). Because the lysate contained luciferase fragments at high concentrations, it was expected that when fragment-containing lysates were mixed, two types of fragments were highly likely to encounter each other and these two fragments could form the original luciferase structure.
picALuc30 was divided to further prepare plasmids (pET32 vectors) for expression of polypeptides from position 4 to 58, from position 4 to 64, from position 4 to 72, from position 65 to 120, from position 73 to 120, and from position 104 to 120 of the amino acid sequence in SEQ ID NO: 51. In Experiment 11-2, emission values were measured in the same manner as in Experiment 11-1 except that an Enspire multi-mode plate reader (PerkinElmer™) was used for emission value detection.

[6] = Stability of protein terminus: Western blot detection of Flag-tag and His-tag in culture supernatant; conditions: secretion-expressed luciferase in COS-7 culture supernatant; Western blotting
Description: In the same manner as in Experiment 2, the plasmid was transfected into COS-7 cells and culture supernatant was collected. Flag-tag added to the N terminus of each secretion-expressed luciferase and His-tag added to the C terminus thereof were detected by Western blotting (SDS-PAGE, Mini-PROTEAN TGX Gel StainFree 4-15% (Bio-Rad™, Hercules, CA)) (FIG. 17). The antibodies used were Anti 6×Histidine, Monoclonal Antibody (9C11), Peroxidase Conjugated (manufactured by FUJIFILM Wako Pure Chemical Corporation, 1:1000) and Monoclonal ANTI-FLAG (R) M2-Peroxidase (HRP) antibody produced in mouse, clone M2 (manufactured by Sigma-Aldrich™, St. Louis, MO, 1/1000), respectively, and detection was performed with Amesham Imager 680 (Cytiva™, Marlborough, MA).

[7] = Measurement of specific activity (enzyme concentrations adjusted by Western blot signal); type: biochemical
Experimental: The specific activities of NanoLuc®, ALuc30 wt, and picALuc30 were measured, with their enzyme concentrations adjusted based on the Western blot signal intensity obtained in Experiment 6.

B1: NanoLuc®: known luciferase, about 19 kDa; SEQ ID NO: 73 (protein)
chain: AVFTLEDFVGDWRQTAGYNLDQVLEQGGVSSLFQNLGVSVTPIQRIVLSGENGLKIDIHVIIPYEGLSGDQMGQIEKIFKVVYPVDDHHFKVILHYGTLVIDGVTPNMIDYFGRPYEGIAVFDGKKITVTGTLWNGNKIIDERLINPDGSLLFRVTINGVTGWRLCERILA
modifications: oplophorus gracilirostris
emission values (rank order) ([1]; coelenterazine h 5 μM): TurboLuc™=ALuc30 wt>>NanoLuc®>picALuc30>GLuc
emission values (rank order) ([1]; coelenterazine h 25 μM): picALuc30>>NanoLuc®=TurboLuc™=ALuc30 wt>>GLuc
emission values (rank order) ([2]; coelenterazine 0.5 μM): NanoLuc®>>picALuc30>TurboLuc™>ALuc30 wt>GLuc
emission values (rank order) ([2]; coelenterazine 5 μM): ALuc30 wt=picALuc30>NanoLuc®>TurboLuc™>GLuc
emission value (known) [3]: very high
emission value [4]: high emission values; also recorded: the same as when coelenterazine or coelenterazine h was used

B2: position 4 to 72 and position 23 to 120: combination of polypeptides of these positions of SEQ ID NO: 51 (SEQ ID NOs: 80 and 81) (protein)
chain 1: GKKLPLEVLKELEANAQKAGCTRGCLICLSHIKCTAKMKKWLPGRCESWEGDKETGQGGIGEAIVDIPE
chain 2: GCTRGCLICLSHIKCTAKMKKWLPGRCESWEGDKETGQGGIGEAIVDIPEIPGFKELAPMEQFIAQVDLCADCTTGCLKGLANVKCSALLKKWLPSRC
modifications: part of picALuc30
emission value [5]: high emission value

B3: position 4 to 72 and position 104 to 120: combination of polypeptides of these positions of SEQ ID NO: 51 (SEQ ID NOs: 80 and 85) (protein)
chain 1: B2 chain 1
chain 2: ANVKCSALLKKWLPSRC
modifications: part of picALuc30
emission value [5]: high emission value

B4: ALuc30 wt: artificial luciferase; positions 20 to 212 of ALuc30 (SEQ ID NO: 28) without a signal sequence; about 21 kDa (protein)
chain: HHHHHHHHDIVGVEGKFGTTDLETDLFTIVEDMNVISRDTDVDANRADRGRRGKLPGKKLPLEVLKELEANAQKAGCTRGCLICLSHIKCTAKMKKWLPGRCESWEGDKETGQGGIGEAIVDIPEIPGFKELAPMEQFIAQVDLCADCTTGCLKGLANVKCSALLKKWLPSRCAGFADKIQAQVDTIKGAGGS
modifications: ALuc30
notes: artificial luciferase; about 21 kDa
emission values (rank order) ([1]; coelenterazine h 5 μM): TurboLuc™=ALuc30 wt>>NanoLuc®>picALuc30>GLuc
emission values (rank order) ([1]; coelenterazine h 25 μM): picALuc30>>NanoLuc®=TurboLuc™=ALuc30 wt>>GLuc
stability of protein termini (Flag-tag and His-tag detection) [6]: both termini remaining
emission values (rank order) ([2]; coelenterazine 0.5 μM): NanoLuc®>>picALuc30>TurboLuc™>ALuc30 wt>GLuc
emission values (rank order) ([2]; coelenterazine 5 μM): ALuc30 wt=picALuc30>NanoLuc®>TurboLuc™>GLuc
maximum emission value ([7]; Experiment 7): same maximum emission value as NanoLuc®
specific activity ([7]; coelenterazine or coelenterazine h as substrate): the same as the specific activity of picALuc
emission value [4]: low as compared to NanoLuc® and TurboLuc™

B5: TurboLuc™: known luciferase, about 16 kDa; SEQ ID NO: 74 (protein, listed as Metrisia longa)
chain: MEAEAERGKLPGKKLPLEVLIELEANARKAGCTRGCLICLSKIKCTAKMKKYIPGRCADYGGDKKTGQAGIVGAIVDIPEISGFKEMEPMEQFIAQVDRCADCTTGCLKGLANVKCSDLLKKWLPGRCATFADKIQSEVDNIKGLAGD
emission values (rank order) ([1]; coelenterazine h 5 μM): TurboLuc™=ALuc30 wt>>NanoLuc®>picALuc30>GLuc
emission values (rank order) ([1]; coelenterazine h 25 μM): picALuc30>>NanoLuc®=TurboLuc™=ALuc30 wt>>GLuc
stability of protein termini (Flag-tag and His-tag detection) [6]: N terminus was lost
emission values (rank order) ([2]; coelenterazine 0.5 μM): NanoLuc®>>picALuc30>TurboLuc™>ALuc30 wt>GLuc
emission values (rank order) ([2]; coelenterazine 5 μM): ALuc30 wt=picALuc30>NanoLuc®>TurboLuc™>GLuc
emission value (known) [3]: relatively high
emission value [4]: high emission values
